Reference: the supplement of paper PMC10065799, “High-throughput profiling of sequence recognition by tyrosine kinases and SH2 domains using bacterial peptide display” (eLife, 2023)
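Note: 11-residue human phosphosite peptides and single-mutation variants displayed on the E. coli surface, counted by deep sequencing, each peptide's frequency after selection divided by its frequency in the unselected input library; frequency after pTyr selection over input frequency; kinase dosed for 20-30% of maximal phosphorylation in three min.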

What follows are sequences tested against FGFR3 (UniProt P22607) (assay: phosphorylation enrichment, bacterial display (enrichment ratio); higher = better substrate or ligand; peptides without Tyr show the background).
FGFR3, sequence (P22607 whole entry, looked up): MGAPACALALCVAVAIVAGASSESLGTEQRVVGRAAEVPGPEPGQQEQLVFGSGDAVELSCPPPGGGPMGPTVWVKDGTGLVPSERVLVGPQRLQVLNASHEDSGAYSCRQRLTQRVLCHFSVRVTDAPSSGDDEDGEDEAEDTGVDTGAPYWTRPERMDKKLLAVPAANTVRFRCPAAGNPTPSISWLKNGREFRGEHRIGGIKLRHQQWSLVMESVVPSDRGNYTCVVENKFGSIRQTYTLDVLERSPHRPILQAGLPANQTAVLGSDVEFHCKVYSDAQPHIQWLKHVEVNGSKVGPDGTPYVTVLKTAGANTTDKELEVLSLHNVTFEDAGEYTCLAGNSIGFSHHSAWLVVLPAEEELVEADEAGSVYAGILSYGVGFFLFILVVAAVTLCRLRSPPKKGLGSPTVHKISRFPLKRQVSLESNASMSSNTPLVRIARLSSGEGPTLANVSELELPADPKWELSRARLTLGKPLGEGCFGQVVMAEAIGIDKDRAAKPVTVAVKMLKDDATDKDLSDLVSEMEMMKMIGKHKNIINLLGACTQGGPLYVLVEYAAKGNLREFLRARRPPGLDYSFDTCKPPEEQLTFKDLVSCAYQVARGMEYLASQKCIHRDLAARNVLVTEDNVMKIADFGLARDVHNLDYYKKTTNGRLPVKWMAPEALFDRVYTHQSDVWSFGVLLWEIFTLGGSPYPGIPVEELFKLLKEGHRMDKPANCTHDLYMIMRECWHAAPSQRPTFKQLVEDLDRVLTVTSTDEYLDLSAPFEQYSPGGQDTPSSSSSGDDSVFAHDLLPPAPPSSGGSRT
In the case of GAVGNYSGGLA [MGMT_Y158], the phosphorylation enrichment is reported as 0.61.
NHFKIYNLFAE [PTEN_Y68_C71Y_YF] gave a phosphorylation enrichment of 1.36.

What follows are sequences tested against EPHB1 (UniProt P54762) in the same assay as above.
EPHB1, sequence (P54762 whole entry, looked up): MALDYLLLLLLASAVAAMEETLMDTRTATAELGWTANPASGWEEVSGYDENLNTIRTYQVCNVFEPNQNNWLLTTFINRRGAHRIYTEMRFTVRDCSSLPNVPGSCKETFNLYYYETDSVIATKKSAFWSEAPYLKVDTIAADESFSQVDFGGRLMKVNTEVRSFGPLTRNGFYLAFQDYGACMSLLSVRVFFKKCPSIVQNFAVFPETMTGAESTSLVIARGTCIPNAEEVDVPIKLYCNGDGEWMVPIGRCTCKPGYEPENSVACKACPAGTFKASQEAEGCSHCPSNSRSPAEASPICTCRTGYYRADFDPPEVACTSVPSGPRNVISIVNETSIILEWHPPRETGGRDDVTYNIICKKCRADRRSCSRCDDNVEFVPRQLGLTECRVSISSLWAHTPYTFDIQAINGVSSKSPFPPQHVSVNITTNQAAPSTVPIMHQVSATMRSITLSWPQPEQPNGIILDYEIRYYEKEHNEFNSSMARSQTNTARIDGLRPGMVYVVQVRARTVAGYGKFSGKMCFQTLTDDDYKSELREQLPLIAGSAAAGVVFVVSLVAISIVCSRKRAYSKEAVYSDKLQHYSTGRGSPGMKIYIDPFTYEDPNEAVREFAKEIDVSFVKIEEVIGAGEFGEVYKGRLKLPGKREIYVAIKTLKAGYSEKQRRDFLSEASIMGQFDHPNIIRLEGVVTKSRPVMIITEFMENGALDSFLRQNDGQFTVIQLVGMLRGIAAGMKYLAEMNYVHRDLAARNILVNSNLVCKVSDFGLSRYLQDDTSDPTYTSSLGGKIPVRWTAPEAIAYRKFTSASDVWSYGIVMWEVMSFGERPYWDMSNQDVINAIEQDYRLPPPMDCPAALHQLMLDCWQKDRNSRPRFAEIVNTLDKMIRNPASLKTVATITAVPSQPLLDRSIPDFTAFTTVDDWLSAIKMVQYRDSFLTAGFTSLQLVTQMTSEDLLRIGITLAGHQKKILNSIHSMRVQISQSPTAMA
AFAEVYEGQVS [ALK_Y1131_G1128A] gave a phosphorylation enrichment of 0.559.
In the case of ERSMSYCDESR [SMG1_Y143_S144C], the phosphorylation enrichment is reported as 0.435.
For RGNMYYENSYA [EGFR_Y113], the phosphorylation enrichment was 1.04.
In the case of SISLKYEGRVY [ABL1_Y167_R166K], the phosphorylation enrichment is reported as 0.663.
ATQDNYVLEVR [PTPRZ1_Y2179_D2178N] gave a phosphorylation enrichment of 0.502.
NDHHFYLEGTL [ALDOB_Y223_V222F] was tested, and the phosphorylation enrichment was 0.497.
Sequence RGRKVYLEDGF [PRIM2_Y201] has a phosphorylation enrichment of 0.662.
For KSMFVYCTPNK [ATP2A2_Y497_S495F], the phosphorylation enrichment was 0.6.
KSLFHYRQFSA [CPS1_Y1491_YF] gave a phosphorylation enrichment of 0.553.
WRPFGYPRRRR [BCS1L_Y181] was tested, and the phosphorylation enrichment was 0.486.
In the case of EVDETYVPKEF [ALB_Y521], the phosphorylation enrichment is reported as 0.613.
DSGRDYVSQFE [APOA1_Y53] was tested, and the phosphorylation enrichment was 0.685.
In the case of YRASYYRKGGC [ALK_Y1283], the phosphorylation enrichment is reported as 0.57.
In the case of VGQRPYRPLPE [REEP3_Y170_Q171R], the phosphorylation enrichment is reported as 0.391.
PHMQTYEVDPN [SDHB_Y61_L65P] showed a phosphorylation enrichment of 0.782.
LGPDGYSTVDR [ARVCF_Y901] was tested, and the phosphorylation enrichment was 0.318.
CKLCQYFLDHL [ATRX_Y1849_Y1847C_YF] showed a phosphorylation enrichment of 0.571.
FTAVGYHKHFT [NOMO1_Y1137_I1141F] gave a phosphorylation enrichment of 0.252.
EFQLPYFNMVP [BMPR1A_Y457_YF] showed a phosphorylation enrichment of 0.389.
With SLIEHYEPSET [PLCD1_Y258_R257H] the phosphorylation enrichment was 0.541.
GHNNVYISEHV [GRIN2A_Y1423_D1421N] gave a phosphorylation enrichment of 0.374.
NYSKMYCNPDA [KNL1_Y489_A486S] showed a phosphorylation enrichment of 0.536.
VQQVIYATRAL [MYH7_Y422_G425R] was tested, and the phosphorylation enrichment was 0.434.
Sequence GCRSKYVRLWG [KCNQ1_Y184_G186R] has a phosphorylation enrichment of 0.383.
RNGDRYFKEIV [DCX_Y64_G67E] gave a phosphorylation enrichment of 0.55.
FKNGDYNEVMK [LCT_Y1638] was tested, and the phosphorylation enrichment was 0.578.
Work on SPDMLYQFLKQ [RPAP3_Y567_YF] yielded a phosphorylation enrichment of 0.943.
For MSRNLYSGDCY [DDR2_Y736_Y740C], the phosphorylation enrichment was 2.11.
KVKVEYDMTVP [AHNAK_Y964_G962V] was tested, and the phosphorylation enrichment was 0.45.
In the case of GAEIVYKSPVV [MAPT_Y711], the phosphorylation enrichment is reported as 0.747.
Work on PADSGYPAFLG [ATP6V1A_Y374_YF] yielded a phosphorylation enrichment of 1.51.
For GAVGNYSGGLA [MGMT_Y158], the phosphorylation enrichment was 0.554.
NHFKIYNLFAE [PTEN_Y68_C71Y_YF] was tested, and the phosphorylation enrichment was 0.931.

These sequences were tested against FGFR1 (UniProt P11362) in the same assay as above.
FGFR1, sequence (P11362 whole entry, looked up): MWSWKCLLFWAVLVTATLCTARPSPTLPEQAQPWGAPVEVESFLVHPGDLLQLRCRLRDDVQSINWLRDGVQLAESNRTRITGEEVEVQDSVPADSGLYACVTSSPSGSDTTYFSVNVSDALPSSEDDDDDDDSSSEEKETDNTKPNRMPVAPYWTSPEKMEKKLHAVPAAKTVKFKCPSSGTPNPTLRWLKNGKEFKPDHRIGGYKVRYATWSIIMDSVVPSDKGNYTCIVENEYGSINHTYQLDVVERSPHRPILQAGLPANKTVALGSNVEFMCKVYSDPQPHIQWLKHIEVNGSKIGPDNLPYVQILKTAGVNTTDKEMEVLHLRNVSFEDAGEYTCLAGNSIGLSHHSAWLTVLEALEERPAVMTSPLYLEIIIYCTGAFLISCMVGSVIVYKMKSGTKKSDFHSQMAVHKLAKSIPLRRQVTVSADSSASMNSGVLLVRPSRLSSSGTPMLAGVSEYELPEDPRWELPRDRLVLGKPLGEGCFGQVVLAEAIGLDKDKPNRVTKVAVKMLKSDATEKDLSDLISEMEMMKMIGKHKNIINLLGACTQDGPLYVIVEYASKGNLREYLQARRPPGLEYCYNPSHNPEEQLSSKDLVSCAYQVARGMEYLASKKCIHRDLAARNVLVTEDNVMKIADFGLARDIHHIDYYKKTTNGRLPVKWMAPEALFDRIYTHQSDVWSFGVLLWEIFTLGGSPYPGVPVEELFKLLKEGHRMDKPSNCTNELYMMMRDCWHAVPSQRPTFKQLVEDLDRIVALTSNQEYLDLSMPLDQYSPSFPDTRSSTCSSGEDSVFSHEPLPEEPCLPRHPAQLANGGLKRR
Sequence AFAEVYEGQVS [ALK_Y1131_G1128A] has a phosphorylation enrichment of 0.414.
For ERSMSYCDESR [SMG1_Y143_S144C], the phosphorylation enrichment was 0.475.
Sequence RGNMYYENSYA [EGFR_Y113] has a phosphorylation enrichment of 1.29.
SISLKYEGRVY [ABL1_Y167_R166K] was tested, and the phosphorylation enrichment was 0.51.
ATQDNYVLEVR [PTPRZ1_Y2179_D2178N] gave a phosphorylation enrichment of 0.489.
NDHHFYLEGTL [ALDOB_Y223_V222F] gave a phosphorylation enrichment of 0.489.
For RGRKVYLEDGF [PRIM2_Y201], the phosphorylation enrichment was 0.749.
For KSMFVYCTPNK [ATP2A2_Y497_S495F], the phosphorylation enrichment was 0.587.
In the case of KSLFHYRQFSA [CPS1_Y1491_YF], the phosphorylation enrichment is reported as 0.546.
WRPFGYPRRRR [BCS1L_Y181] was tested, and the phosphorylation enrichment was 0.367.
Work on EVDETYVPKEF [ALB_Y521] yielded a phosphorylation enrichment of 0.589.
For DSGRDYVSQFE [APOA1_Y53], the phosphorylation enrichment was 0.462.
YRASYYRKGGC [ALK_Y1283] showed a phosphorylation enrichment of 0.514.
Work on VGQRPYRPLPE [REEP3_Y170_Q171R] yielded a phosphorylation enrichment of 0.482.
PHMQTYEVDPN [SDHB_Y61_L65P] showed a phosphorylation enrichment of 0.511.
For LGPDGYSTVDR [ARVCF_Y901], the phosphorylation enrichment was 0.617.
CKLCQYFLDHL [ATRX_Y1849_Y1847C_YF] was tested, and the phosphorylation enrichment was 0.689.
In the case of FTAVGYHKHFT [NOMO1_Y1137_I1141F], the phosphorylation enrichment is reported as 0.449.
For EFQLPYFNMVP [BMPR1A_Y457_YF], the phosphorylation enrichment was 5.
Work on SLIEHYEPSET [PLCD1_Y258_R257H] yielded a phosphorylation enrichment of 0.586.
Sequence GHNNVYISEHV [GRIN2A_Y1423_D1421N] has a phosphorylation enrichment of 0.421.
With NYSKMYCNPDA [KNL1_Y489_A486S] the phosphorylation enrichment was 0.483.
VQQVIYATRAL [MYH7_Y422_G425R] gave a phosphorylation enrichment of 0.468.
Sequence GCRSKYVRLWG [KCNQ1_Y184_G186R] has a phosphorylation enrichment of 0.462.
RNGDRYFKEIV [DCX_Y64_G67E] showed a phosphorylation enrichment of 0.703.
FKNGDYNEVMK [LCT_Y1638] gave a phosphorylation enrichment of 0.579.
Work on SPDMLYQFLKQ [RPAP3_Y567_YF] yielded a phosphorylation enrichment of 1.7.
Sequence MSRNLYSGDCY [DDR2_Y736_Y740C] has a phosphorylation enrichment of 0.951.
In the case of KVKVEYDMTVP [AHNAK_Y964_G962V], the phosphorylation enrichment is reported as 0.495.
Sequence GAEIVYKSPVV [MAPT_Y711] has a phosphorylation enrichment of 0.478.
Work on PADSGYPAFLG [ATP6V1A_Y374_YF] yielded a phosphorylation enrichment of 0.981.
GAVGNYSGGLA [MGMT_Y158] gave a phosphorylation enrichment of 0.453.
For NHFKIYNLFAE [PTEN_Y68_C71Y_YF], the phosphorylation enrichment was 0.933.

The sequences below were run against Fyn (UniProt P06241) in the same assay as above.
Fyn, sequence (P06241 whole entry, looked up): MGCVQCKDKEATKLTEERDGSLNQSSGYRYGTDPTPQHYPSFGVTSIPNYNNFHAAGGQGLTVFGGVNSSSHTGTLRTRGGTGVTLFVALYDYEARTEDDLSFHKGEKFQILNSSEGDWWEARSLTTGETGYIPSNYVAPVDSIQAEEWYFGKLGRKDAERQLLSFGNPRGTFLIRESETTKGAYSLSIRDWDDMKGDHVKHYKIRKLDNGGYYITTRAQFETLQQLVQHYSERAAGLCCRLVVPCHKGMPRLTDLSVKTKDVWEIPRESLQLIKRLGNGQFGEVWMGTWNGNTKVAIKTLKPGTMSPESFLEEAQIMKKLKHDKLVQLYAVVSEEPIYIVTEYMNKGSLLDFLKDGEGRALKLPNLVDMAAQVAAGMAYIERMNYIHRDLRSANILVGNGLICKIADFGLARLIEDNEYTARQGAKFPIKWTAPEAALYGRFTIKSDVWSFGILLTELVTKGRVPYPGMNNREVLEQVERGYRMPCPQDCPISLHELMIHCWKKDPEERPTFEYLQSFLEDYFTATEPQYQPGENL
AFAEVYEGQVS [ALK_Y1131_G1128A] gave a phosphorylation enrichment of 0.563.
ERSMSYCDESR [SMG1_Y143_S144C] gave a phosphorylation enrichment of 0.422.
With RGNMYYENSYA [EGFR_Y113] the phosphorylation enrichment was 0.832.
In the case of SISLKYEGRVY [ABL1_Y167_R166K], the phosphorylation enrichment is reported as 0.47.
In the case of ATQDNYVLEVR [PTPRZ1_Y2179_D2178N], the phosphorylation enrichment is reported as 0.452.
With NDHHFYLEGTL [ALDOB_Y223_V222F] the phosphorylation enrichment was 0.398.
Work on RGRKVYLEDGF [PRIM2_Y201] yielded a phosphorylation enrichment of 0.698.
KSMFVYCTPNK [ATP2A2_Y497_S495F] gave a phosphorylation enrichment of 0.473.
KSLFHYRQFSA [CPS1_Y1491_YF] showed a phosphorylation enrichment of 0.466.
WRPFGYPRRRR [BCS1L_Y181] gave a phosphorylation enrichment of 0.518.
Sequence EVDETYVPKEF [ALB_Y521] has a phosphorylation enrichment of 0.517.
For DSGRDYVSQFE [APOA1_Y53], the phosphorylation enrichment was 0.489.
With YRASYYRKGGC [ALK_Y1283] the phosphorylation enrichment was 0.485.
VGQRPYRPLPE [REEP3_Y170_Q171R] was tested, and the phosphorylation enrichment was 0.492.
Sequence PHMQTYEVDPN [SDHB_Y61_L65P] has a phosphorylation enrichment of 0.586.
With LGPDGYSTVDR [ARVCF_Y901] the phosphorylation enrichment was 0.679.
CKLCQYFLDHL [ATRX_Y1849_Y1847C_YF] was tested, and the phosphorylation enrichment was 0.449.
FTAVGYHKHFT [NOMO1_Y1137_I1141F] gave a phosphorylation enrichment of 0.431.
Work on EFQLPYFNMVP [BMPR1A_Y457_YF] yielded a phosphorylation enrichment of 0.547.
In the case of SLIEHYEPSET [PLCD1_Y258_R257H], the phosphorylation enrichment is reported as 0.513.
In the case of GHNNVYISEHV [GRIN2A_Y1423_D1421N], the phosphorylation enrichment is reported as 0.475.
For NYSKMYCNPDA [KNL1_Y489_A486S], the phosphorylation enrichment was 0.396.
For VQQVIYATRAL [MYH7_Y422_G425R], the phosphorylation enrichment was 9.04.
For GCRSKYVRLWG [KCNQ1_Y184_G186R], the phosphorylation enrichment was 0.425.
For RNGDRYFKEIV [DCX_Y64_G67E], the phosphorylation enrichment was 0.572.
Work on FKNGDYNEVMK [LCT_Y1638] yielded a phosphorylation enrichment of 0.389.
Work on SPDMLYQFLKQ [RPAP3_Y567_YF] yielded a phosphorylation enrichment of 0.792.
MSRNLYSGDCY [DDR2_Y736_Y740C] gave a phosphorylation enrichment of 1.96.
KVKVEYDMTVP [AHNAK_Y964_G962V] gave a phosphorylation enrichment of 0.492.
With GAEIVYKSPVV [MAPT_Y711] the phosphorylation enrichment was 0.533.
PADSGYPAFLG [ATP6V1A_Y374_YF] showed a phosphorylation enrichment of 1.04.
GAVGNYSGGLA [MGMT_Y158] showed a phosphorylation enrichment of 0.374.
With NHFKIYNLFAE [PTEN_Y68_C71Y_YF] the phosphorylation enrichment was 2.73.

Each sequence was assayed on c-Abl (mouse) in the same assay as above.
Sequence AFAEVYEGQVS [ALK_Y1131_G1128A] has a phosphorylation enrichment of 0.868.
Work on ERSMSYCDESR [SMG1_Y143_S144C] yielded a phosphorylation enrichment of 0.704.
RGNMYYENSYA [EGFR_Y113] gave a phosphorylation enrichment of 1.65.
SISLKYEGRVY [ABL1_Y167_R166K] was tested, and the phosphorylation enrichment was 0.983.
Sequence ATQDNYVLEVR [PTPRZ1_Y2179_D2178N] has a phosphorylation enrichment of 0.6.
For NDHHFYLEGTL [ALDOB_Y223_V222F], the phosphorylation enrichment was 0.646.
Work on RGRKVYLEDGF [PRIM2_Y201] yielded a phosphorylation enrichment of 1.29.
In the case of KSMFVYCTPNK [ATP2A2_Y497_S495F], the phosphorylation enrichment is reported as 1.05.
KSLFHYRQFSA [CPS1_Y1491_YF] gave a phosphorylation enrichment of 0.59.
With WRPFGYPRRRR [BCS1L_Y181] the phosphorylation enrichment was 0.444.
Sequence EVDETYVPKEF [ALB_Y521] has a phosphorylation enrichment of 0.889.
For DSGRDYVSQFE [APOA1_Y53], the phosphorylation enrichment was 0.601.
YRASYYRKGGC [ALK_Y1283] was tested, and the phosphorylation enrichment was 0.653.
VGQRPYRPLPE [REEP3_Y170_Q171R] was tested, and the phosphorylation enrichment was 0.683.
Work on PHMQTYEVDPN [SDHB_Y61_L65P] yielded a phosphorylation enrichment of 0.932.
Work on LGPDGYSTVDR [ARVCF_Y901] yielded a phosphorylation enrichment of 0.909.
Sequence CKLCQYFLDHL [ATRX_Y1849_Y1847C_YF] has a phosphorylation enrichment of 0.89.
In the case of FTAVGYHKHFT [NOMO1_Y1137_I1141F], the phosphorylation enrichment is reported as 0.491.
Work on EFQLPYFNMVP [BMPR1A_Y457_YF] yielded a phosphorylation enrichment of 0.618.
SLIEHYEPSET [PLCD1_Y258_R257H] gave a phosphorylation enrichment of 0.624.
Work on GHNNVYISEHV [GRIN2A_Y1423_D1421N] yielded a phosphorylation enrichment of 0.522.
With NYSKMYCNPDA [KNL1_Y489_A486S] the phosphorylation enrichment was 0.566.
Work on VQQVIYATRAL [MYH7_Y422_G425R] yielded a phosphorylation enrichment of 14.1.
Work on GCRSKYVRLWG [KCNQ1_Y184_G186R] yielded a phosphorylation enrichment of 0.492.
In the case of RNGDRYFKEIV [DCX_Y64_G67E], the phosphorylation enrichment is reported as 0.548.
For FKNGDYNEVMK [LCT_Y1638], the phosphorylation enrichment was 0.578.
Sequence SPDMLYQFLKQ [RPAP3_Y567_YF] has a phosphorylation enrichment of 0.695.
Sequence MSRNLYSGDCY [DDR2_Y736_Y740C] has a phosphorylation enrichment of 0.581.
KVKVEYDMTVP [AHNAK_Y964_G962V] showed a phosphorylation enrichment of 0.862.
In the case of GAEIVYKSPVV [MAPT_Y711], the phosphorylation enrichment is reported as 18.3.
